Laboratory results published in article PMC9973356, “Cryo-EM Structures of AcrD Illuminate a Mechanism for Capturing Aminoglycosides from Its Central Cavity” (mBio, 2023).
Values joined by “and” are separate entries in the source; they are usually repeats but may differ in a detail not shown here. Identical values can stand only once.

Molecular target: the molecule itself
Assay: cryo-EM structure; single-particle cryo-EM of 10 µM AcrD in MSP1E3D1 nanodiscs (E. coli total extract lipid; 20 mM Tris-HCl pH 7.5, 100 mM NaCl), no gentamicin; particle ratio of trimer to dimer to monomer approximately 3:5:2

B1: Escherichia coli acriflavine resistance protein D (AcrD) (natural protein)
chain: MANFFIDRPIFAWVLAILLCLTGTLAIFSLPVEQYPDLAPPNVRVTANYPGASAQTLENTVTQVIEQNMTGLDNLMYMSSQSSGTGQASVTLSFKAGTDPDEAVQQVQNQLQSAMRKLPQAVQNQGVTVRKTGDTNILTIAFVSTDGSMDKQDIADYVASNIQDPLSRVNGVGDIDAYGSQYSMRIWLDPAKLNSFQMTAKDVTDAIESQNAQIAVGQLGGTPSVDKQALNATINAQSLLQTPEQFRDITLRVNQDGSEVRLGDVATVEMGAEKYDYLSRFNGKPASGLGVKLASGANEMATAELVLNRLDELAQYFPHGLEYKVAYETTSFVKASIEDVVKTLLEAIALVFLVMYLFLQNFRATLIPTIAVPVVLMGTFSVLYAFGYSVNTLTMFAMVLAIGLLVDDAIVVVENVERIMSEEGLTPREATRKSMGQIQGALVGIAMVLSAVFVPMAFFGGTTGAIYRQFSITIVAAMVLSVLVAMILTPALCATLLKPLKKGEHHGQKGFFAWFNQMFNRNAERYEKGVAKILHRSLRWIVIYVLLLGGMVFLFLRLPTSFLPLEDRGMFTTSVQLPSGSTQQQTLKVVEQIEKYYFTHEKDNIMSVFATVGSGPGGNGQNVARMFIRLKDWSERDSKTGTSFAIIERATKAFNQIKEARVIASSPPAISGLGSSAGFDMELQDHAGAGHDALMAARNQLLALAAENPELTRVRHNGLDDSPQLQIDIDQRKAQALGVAIDDINDTLQTAWGSSYVNDFMDRGRVKKVYVQAAAPYRMLPDDINLWYVRNKDGGMVPFSAFATSRWETGSPRLERYNGYSAVEIVGEAAPGVSTGTAMDIMESLVKQLPNGFGLEWTAMSYQERLSGAQAPALYAISLLVVFLCLAALYESWSVPFSVMLVVPLGVIGALLATWMRGLENDVYFQVGLLTVIGLSAKNAILIVEFANEMNQKGHDLFEATLHACRQRLRPILMTSLAFIFGVLPMATSTGAGSGGQHAVGTGVMGGMISATILAIYFVPLFFVLVRRRFPLKPRPE
notes: AcrD, E. coli, full length; Seen as trimers, dimers and monomers in the same nanodisc sample; The nanodisc scaffold protein MSP1E3D1 (Sigma-Aldrich) is only a tool; also called AcrD aminoglycoside efflux pump; apo-AcrD
Which “stoichiometry N” value does the source give for B1 here?
The value was 3 and 2.
